Laboratory results reported in PMC5027573, “Structural Analysis of the Hg(II)-Regulatory Protein Tn501 MerR from Pseudomonas aeruginosa” (Scientific Reports, 2016).

Target: the molecule itself
Test: crystal structure; Hg(II)-bound truncated MerR (equimolar HgCl2); sitting-drop vapor diffusion at 16 °C, 0.1 M KCl, 0.01 M MgCl2, 0.1 M Tris pH 8.5, 30% PEG200; space group P3(1)21, one dimer in the asymmetric unit; Hg SAD, 2.8 Å

B1: C-terminal truncated Tn501 MerR (MerRTC10), mercury(II)-bound (domain or fragment, Pseudomonas aeruginosa, UniProt P0A183 1-134, looked up)
chain: MENNLENLTIGVFAKAAGVNVETIRFYQRKGLLLEPDKPYGSIRRYGEADVTRVRFVKSAQRLGFSLDEIAELLRLEDGTHCEEASSLAEHKLKDVREKMADLARMEAVLSELVCACHARRGNVSCPLIASLQG
notes: Mercuric resistance operon regulatory protein MerR of transposon Tn501, Pseudomonas aeruginosa; the last ten C-terminal residues were truncated; synthesized and codon-optimized merR gene; also called Hg2+-MerR; C-terminally truncated Tn501 MerR; source: E. coli BL21 (DE3), pET-30a, purified (HiTrap Phenyl FF, HisTrap HF, Superdex200 gel filtration)
  stoichiometry N: 2
